Experimental data: publication PMC4092090, “Investigation of a MMP-2 Activity-Dependent Anchoring Probe for Nuclear Imaging of Cancer” (PLoS ONE, 2014)
Entries after “also recorded” stand apart in the source; their conditions may differ.

Tests used:
[1] = type: physicochemical; details: pH 7.4
Experimental: The experimental determination of probe partition coefficients (log P values) was performed in 1-octanol and 0.02 M phosphate buffer pH 7.4 where the two phases were pre-saturated with each other. 1-Octanol (200 µl) and phosphate buffer (200 µl) were pipetted into LoBind Eppendorf tubes containing 0.37 MBq of probes. The tube was vortexed for 10 seconds, and centrifuged (5 min, 4000×g). Aliquots (50 µl) from the 1-octanol and buffer phases were transferred into two test tubes for radioactivity counting with a NaI well-type scintillation counter (1470 WIZARD, Perkin Elmer, Kanagawa, Japan). The partition coefficient was calculated using the equation P = (counts/µl in 1-octanol)/(counts/µl in buffer).

[2] = system: HT1080 human fibrosarcoma cells; experiment: Cellular uptake study; type: cell-based; details: 5×10^5 HT1080 cells, FBS-free DMEM, 37 kBq probe, 30 min incubation, radioactivity counting, Fig. 3a
Experimental: HT1080 human fibrosarcoma cells were purchased from American Type Culture Collection (ATCC, Manassas, VA USA) and cultured in DMEM with low glucose (Invitrogen), 10% fetal bovine serum (FBS), and penicillin/streptomycin. MMP-2 cDNA was cloned into the pENTR vector (Invitrogen) and inserted into the pLenti6 vector (Invitrogen) as previously described, [7]. […] Protein quantitation was performed by BCA protein assay (Thermo Fisher Scientific, Inc. Rockford, IL USA). The cellular uptake study of MDAP3000 pretreated with activated MMP-2 (63 nM) in the presence or absence of GM6001 (100 µM) was performed as described above.

[3] = biological target: T1, Human-recombinant MMP-2 protein (Homo sapiens, UniProt P08253); experiment: Cleavage assay; type: biochemical; details: activated MMP-2 1–5 nM, 370 kBq probe, 37°C, 2 hr, pH 7.5 assay buffer, RP-HPLC, Fig. 3b
T1 construct: purchased R & D Systems, Inc. 902-MP-010
T1 sequence (P08253 110-660): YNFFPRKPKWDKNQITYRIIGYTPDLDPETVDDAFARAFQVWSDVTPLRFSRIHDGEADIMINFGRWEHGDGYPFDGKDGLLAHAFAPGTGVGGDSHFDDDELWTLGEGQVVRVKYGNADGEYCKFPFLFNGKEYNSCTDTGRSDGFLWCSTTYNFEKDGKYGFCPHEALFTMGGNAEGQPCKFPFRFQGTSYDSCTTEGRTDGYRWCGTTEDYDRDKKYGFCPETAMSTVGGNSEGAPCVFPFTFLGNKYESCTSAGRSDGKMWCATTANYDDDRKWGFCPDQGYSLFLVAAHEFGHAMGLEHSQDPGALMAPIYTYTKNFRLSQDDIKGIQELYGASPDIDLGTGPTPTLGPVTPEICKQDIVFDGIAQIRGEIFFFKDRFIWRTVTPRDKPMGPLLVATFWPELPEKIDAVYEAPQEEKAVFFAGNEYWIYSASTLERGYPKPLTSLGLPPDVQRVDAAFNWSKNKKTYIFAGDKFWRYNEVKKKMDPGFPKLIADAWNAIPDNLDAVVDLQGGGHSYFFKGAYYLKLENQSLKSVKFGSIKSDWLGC
Experimental: Human-recombinant MMP-2 protein (902-MP-010, R & D Systems, Inc., Minneapolis, MN USA) was activated with p-aminophenylmercuric acetate (1 mM) in assay buffer (50 mM Tris-HCl, 150 mM NaCl, 10 mM CaCl2, 5 µM ZnCl2, 0.02% Brij 35, pH 7.5). MDAP1000, MDAP3000, and MDAP5000 (370 kBq) were incubated at 37°C for 2 hr with activated MMP-2 (1–5 nM) and a MMP inhibitor (0 or 100 µM, GM6001, Merck KGaA, Darmstadt, Germany). The reaction was quenched by addition of methanol, and the percentage of cleaved peptide was estimated by RP-HPLC.

[4] = system: HT1080 tumor bearing mice; design: species or system mouse (Balb/c nu-nu); details: mouse, in vivo, iv
Experimental: Female Balb/c nu-nu mice (5 weeks old, Japan SLC, Inc., Shizuoka, Japan) were housed under a 12-h light/12-h dark cycle and given free access to food and water. HT1080 cells (5×10^6 cells/100 μl PBS (-)/mouse) were subcutaneously inoculated into the right hind leg of Balb/c nu-nu mice. Animals were used for experiments two weeks after inoculation when the mean tumor size was 5.7±2.2 mm along the major axis. […]3000 and […] (37 kBq, 100 μl in PBS including 3% bovine serum albumin and 0.1% Tween 80) were injected intravenously into the tail vein of tumor bearing mice. The mice were sacrificed at various post-injection time points (n = 3 for each time point), and the organs of interest including the tumor tissues were collected for determination of the weights. The radioactivity of each sample was measured with a NaI well-type scintillation counter. From fitting to the two phase decay curves for blood radioactivity data analyzed by GraphPad Prism 6 (GraphPad Software, San Diego, CA), whole body pharmacokinetic parameters such as blood half-lives, distribution volume, mean residence time and total clearance were calculated for each of the probes and the values compared. Simple pharmacokinetic analysis using a single tissue compartment model was applied to the biodistribution data to calculate rate constants (K1 and k2) for radioactivity transfer from blood to tumor and clearance from tumor to blood by PMOD version 3.2. In addition, MDAP3000 (7.4 MBq in 200 μl) was injected intravenously into the tail vein of tumor bearing mice for metabolite analysis in tumors excised 3, 6, and 24 hr post injection (n = 2 each). Tumor homogenates were prepared on ice and insoluble material was removed by centrifugation after methanol treatment. The resulting supernatant was analyzed by RP-HPLC.

[5] = system: HT1080 tumor bearing mice; design: species or system mouse (Balb/c nu-nu); details: mouse, in vivo, iv; remark: listed apart in the source
Experimental: (§1) […]3000 and […] (37 kBq, 100 μl in PBS including 3% bovine serum albumin and 0.1% Tween 80) were injected intravenously into the tail vein of tumor bearing mice. The mice were sacrificed at various post-injection time points (n = 3 for each time point), and the organs of interest including the tumor tissues were collected for determination of the weights. The radioactivity of each sample was measured with a NaI well-type scintillation counter. From fitting to the two phase decay curves for blood radioactivity data analyzed by GraphPad Prism 6 (GraphPad Software, San Diego, CA), whole body pharmacokinetic parameters such as blood half-lives, distribution volume, mean residence time and total clearance were calculated for each of the probes and the values compared. Simple pharmacokinetic analysis using a single tissue compartment model was applied to the biodistribution data to calculate rate constants (K1 and k2) for radioactivity transfer from blood to tumor and clearance from tumor to blood by PMOD version 3.2. In addition, MDAP3000 (7.4 MBq in 200 μl) was injected intravenously into the tail vein of tumor bearing mice for metabolite analysis in tumors excised 3, 6, and 24 hr post injection (n = 2 each). Tumor homogenates were prepared on ice and insoluble material was removed by centrifugation after methanol treatment. The resulting supernatant was analyzed by RP-HPLC.

[6] = system: HT1080 tumor xenograft; design: species or system mouse (Balb/c nu-nu); details: mouse, in vivo, iv
Experimental: as §1

Palmitoyl-Dap(p-SCN-Bn-DTPA-^111In)-10-Adc-Gly-Pro-Leu-Gly-Val-Arg-Gly-Lys(ivDde)-PEG5000 [MDAP5000]
log P (partition coefficient) [1]: −1.04±0.16 | Cellular accumulation (radioactivity in tumor cells) [2]: significantly lower radioactivity | Cleavage by MMP-2 [3]: concentration-dependent manner; also recorded: rather low

Palmitoyl-Dap(p-SCN-Bn-DTPA-^111In)-10-Adc-Gly-Pro-Leu-Gly-OH [MDAPCV]
Blood clearance (in words) [4]: slow blood clearance | T/B ratios over the experimental period [4]: less than 0.3 | log P (partition coefficient) [1]: 0.29±0.07 | Blood half-life, Fast [5]: 4.17 h | Clearance (total clearance) [5]: 0.0025 mL/min | Distribution volume [5]: 2.16 mL | Mean residence time [5]: 860 min | K1, rate constant for transfer from blood to tumor, Mean [6]: 0.0022 mL/g/min | Cellular accumulation (radioactivity in tumor cells) [2]: high accumulation group
